# Assay results reported in IntAct's records for PubMed 15652484.
# Molecular target: erp44_mouse Erp44 (UniProt Q9D1Q6)
# Sequence (Q9D1Q6 whole entry): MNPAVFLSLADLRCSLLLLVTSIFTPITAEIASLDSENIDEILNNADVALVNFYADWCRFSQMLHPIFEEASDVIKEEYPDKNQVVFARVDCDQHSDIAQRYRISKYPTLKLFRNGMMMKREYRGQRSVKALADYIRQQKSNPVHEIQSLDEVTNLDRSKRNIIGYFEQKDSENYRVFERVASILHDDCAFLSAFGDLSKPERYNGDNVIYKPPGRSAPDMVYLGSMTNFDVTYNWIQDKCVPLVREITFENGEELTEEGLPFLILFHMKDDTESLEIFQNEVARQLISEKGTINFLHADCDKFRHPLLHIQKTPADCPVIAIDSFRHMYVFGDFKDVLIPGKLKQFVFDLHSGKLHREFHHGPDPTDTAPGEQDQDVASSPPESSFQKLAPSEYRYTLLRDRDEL
# Chain of Inositol 1,4,5-trisphosphate-gated calcium channel ITPR1 (Mus musculus), P11881 C2504S (P11881 whole entry C2504S): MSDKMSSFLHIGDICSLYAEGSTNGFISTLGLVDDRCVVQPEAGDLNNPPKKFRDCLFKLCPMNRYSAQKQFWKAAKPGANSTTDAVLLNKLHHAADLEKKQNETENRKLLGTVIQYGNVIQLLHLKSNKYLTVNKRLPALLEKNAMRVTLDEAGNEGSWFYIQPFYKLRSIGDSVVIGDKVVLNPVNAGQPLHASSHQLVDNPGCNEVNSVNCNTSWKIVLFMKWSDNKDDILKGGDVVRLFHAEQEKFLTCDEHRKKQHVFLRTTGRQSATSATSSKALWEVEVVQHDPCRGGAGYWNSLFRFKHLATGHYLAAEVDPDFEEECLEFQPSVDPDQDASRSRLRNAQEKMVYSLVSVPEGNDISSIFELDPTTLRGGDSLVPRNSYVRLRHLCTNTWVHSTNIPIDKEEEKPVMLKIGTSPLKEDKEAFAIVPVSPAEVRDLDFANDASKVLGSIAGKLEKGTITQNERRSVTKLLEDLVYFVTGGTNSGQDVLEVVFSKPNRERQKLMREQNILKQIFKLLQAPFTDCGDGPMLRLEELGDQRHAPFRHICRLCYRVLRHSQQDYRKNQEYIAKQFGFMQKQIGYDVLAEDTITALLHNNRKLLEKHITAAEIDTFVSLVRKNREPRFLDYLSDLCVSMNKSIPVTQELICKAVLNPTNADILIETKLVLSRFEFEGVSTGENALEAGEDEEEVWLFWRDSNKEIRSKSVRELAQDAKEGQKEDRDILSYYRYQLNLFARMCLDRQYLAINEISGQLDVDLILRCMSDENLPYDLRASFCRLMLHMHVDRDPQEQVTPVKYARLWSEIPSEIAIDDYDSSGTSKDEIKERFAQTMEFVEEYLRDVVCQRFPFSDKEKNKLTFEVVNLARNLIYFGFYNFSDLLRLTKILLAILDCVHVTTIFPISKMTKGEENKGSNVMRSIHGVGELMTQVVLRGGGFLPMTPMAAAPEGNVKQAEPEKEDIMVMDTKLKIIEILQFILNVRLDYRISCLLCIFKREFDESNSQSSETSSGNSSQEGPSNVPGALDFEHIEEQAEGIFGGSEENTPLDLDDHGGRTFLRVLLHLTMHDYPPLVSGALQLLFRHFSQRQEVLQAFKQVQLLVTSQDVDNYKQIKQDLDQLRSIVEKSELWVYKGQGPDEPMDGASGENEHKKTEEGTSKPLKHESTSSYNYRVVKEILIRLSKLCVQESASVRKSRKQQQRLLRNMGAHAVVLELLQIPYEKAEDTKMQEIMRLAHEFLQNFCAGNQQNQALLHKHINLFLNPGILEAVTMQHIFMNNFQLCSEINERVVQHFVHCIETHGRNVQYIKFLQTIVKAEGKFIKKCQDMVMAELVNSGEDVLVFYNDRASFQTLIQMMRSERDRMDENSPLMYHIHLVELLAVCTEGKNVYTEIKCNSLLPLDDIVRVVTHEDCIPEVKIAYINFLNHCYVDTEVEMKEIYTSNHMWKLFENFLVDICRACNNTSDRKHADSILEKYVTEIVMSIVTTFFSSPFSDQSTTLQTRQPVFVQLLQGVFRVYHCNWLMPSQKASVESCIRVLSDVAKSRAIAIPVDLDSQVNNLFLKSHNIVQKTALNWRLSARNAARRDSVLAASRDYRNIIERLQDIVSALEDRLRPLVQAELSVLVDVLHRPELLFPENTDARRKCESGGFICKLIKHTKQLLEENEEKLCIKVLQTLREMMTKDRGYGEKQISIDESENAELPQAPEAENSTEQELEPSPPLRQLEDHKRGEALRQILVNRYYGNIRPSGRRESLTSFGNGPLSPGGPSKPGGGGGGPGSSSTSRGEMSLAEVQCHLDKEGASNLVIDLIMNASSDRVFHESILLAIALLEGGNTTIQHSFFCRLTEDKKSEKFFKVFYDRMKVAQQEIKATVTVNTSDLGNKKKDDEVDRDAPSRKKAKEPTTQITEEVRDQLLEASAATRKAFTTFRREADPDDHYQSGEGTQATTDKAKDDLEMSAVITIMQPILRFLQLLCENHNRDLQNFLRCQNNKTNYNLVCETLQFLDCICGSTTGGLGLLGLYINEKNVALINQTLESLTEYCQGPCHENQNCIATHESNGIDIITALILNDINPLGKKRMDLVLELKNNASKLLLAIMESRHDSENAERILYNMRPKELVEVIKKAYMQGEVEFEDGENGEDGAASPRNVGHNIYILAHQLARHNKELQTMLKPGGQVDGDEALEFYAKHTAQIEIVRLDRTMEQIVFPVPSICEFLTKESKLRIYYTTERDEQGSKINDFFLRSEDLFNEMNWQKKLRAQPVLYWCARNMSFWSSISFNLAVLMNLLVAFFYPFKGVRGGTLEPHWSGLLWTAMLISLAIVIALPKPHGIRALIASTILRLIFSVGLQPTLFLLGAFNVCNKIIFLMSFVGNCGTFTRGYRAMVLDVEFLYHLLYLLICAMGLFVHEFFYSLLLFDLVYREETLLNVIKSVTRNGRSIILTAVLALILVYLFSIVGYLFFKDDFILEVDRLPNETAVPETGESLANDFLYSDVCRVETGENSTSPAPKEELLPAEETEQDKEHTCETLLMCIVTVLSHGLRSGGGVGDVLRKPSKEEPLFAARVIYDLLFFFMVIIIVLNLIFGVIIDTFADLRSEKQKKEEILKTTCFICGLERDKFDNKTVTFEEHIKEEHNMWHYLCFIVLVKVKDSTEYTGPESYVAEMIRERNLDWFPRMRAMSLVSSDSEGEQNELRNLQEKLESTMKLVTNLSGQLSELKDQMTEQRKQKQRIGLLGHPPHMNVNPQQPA
row,Substance,effect of a mutation on the interaction
1,"Inositol 1,4,5-trisphosphate-gated calcium channel ITPR1 (Mus musculus), P11881 C2496S",decreasing interaction
2,"Inositol 1,4,5-trisphosphate-gated calcium channel ITPR1 (Mus musculus), P11881 C2504S",decreasing interaction
